These sequences were tested on K4 kissing-loop RNA reporter (assay: apparent KD of K4 kissing-loop reporter; higher = weaker reporter binding). Conditions: Eterna round: R107; input ligand: arginine 13.2 mM.
Procedure: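 RNA-MaP round R107: designed RNA switches with theophylline, tryptophan, arginine or FMN aptamers are transcribed on-chip within common flanks. They are titrated with a labelled K4 kissing-loop RNA reporter in RNA-MaP buffer (100 mM Tris pH 7.5, 80 mM KCl, 4 mM MgCl2), without ligand or with the indicated ligand. Median apparent KD per design.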
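Also: bound reporter read as fluorescence of individual clusters on recovered sequencing chips by microscopy, with normalized cluster intensities fitted with a binding model.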

Going from “GAGGUACAGGCGGCCGCCACUAGUGAUGUUAGUGAUAGAAGAUAUAGUAAAUAUCGGCAUGUAGAUAGGACCGGGCCUGGUGGAG [vvgtcmullin]” to “CCUAUCUCAUACGAUACCAGUCUACGAUAUUUUAUCGUUGCCAACACCGAGUGAUGUUCGGACCCUUGGCAGCGUAUGGGAUAGG [#03 K4 Theophylline B Exclusion]”, the “apparent KD of K4 kissing-loop reporter” value falls from 234 nM to 129 nM (1.8-fold).

Going from “UAAGCUCUGACGGCCGCCACUGCACGUGAUCCAGUAGUGGCUAACAUGAGUGAUGUUCAUGUAAGCAGGACCGGGUCAGAGCUAA [KL-XTryp-B13 #analogue]” to “GUCUCAAAAGAGGCAAGCACUCACGAGGACAAGGAUAUCAUCUCAAUGAGAAGGUGUCCUCGUCCCUAGUGAUGUUAGGGAGUGC [Omei KL FMN A SS E v2]”, the “apparent KD of K4 kissing-loop reporter” value rises from 87.9 nM to 334 nM (3.8-fold).

Going from “GCGGGCCCGGGAGGAUAUGAGUCGAGUGAUGUUCGGCGGUCCAUGCCGUUGCGGCGUUAAGCCCUUUUAGAAGGCCCGGGCCCGC [#2 Exclusion - FMN B Attempt #2 (HarryS)]” to “UCCACGCUUAGAGGAUAUCGGAUUAGAGUGAUGUUCUAAAGAAGCCCAGUGAUGUUGGAUGGUAUACGAGAAGGCUGAGGCGUGG [Same State FMN B GF 3]”, the “apparent KD of K4 kissing-loop reporter” value rises from 137 nM to 629 nM (4.6-fold).

First: UCAUCGGUACAAGGAUAUUAGAGGUAGUGAUGUUACCCGUUUUUUAUACAUCGAUGUCACCCUAACUAAGAAGGUGUUCAAACUU [theeternabot_exclusion_KL_FMN_B_7]
Second: UGACGUUUGGGAAGGAGCGGAAUGUAAUACGGAGCGCGUGGAGAUGCAGUGAUGUUGCAGAUCCAGGUAGGUCGCCCAAGGGACG [Zati]
The “apparent KD of K4 kissing-loop reporter” value of the first is 1.6-fold lower: 52.7 nM for the first, 83.5 nM for the second.

“GCCGUACGCAUGGAUACCAGUCUUAGAGUGAUGUUCUAUACGAUUGCGCCUGGAUCAAUGGACCCUUGGCAGCCAUGCGUACGGC” and “UGUUUUUACUGAAGGAGCGGCAAUUGAUACGUAGAUAUAGUGAUGUUAUAUAAGAUAGAGAGCCAGGUAGGUCGCAGAGUUUUUC [ExArgB.Z]” are within 1.5-fold of each other in “apparent KD of K4 kissing-loop reporter” value: 112 nM for the first, 167 nM for the second.

Compared with “UGAUUGGCGAAAGUAGUGAUGUUACGAACAUAGGAUAUUAGAGGAAUAAGAAGGAUGAAUGAGAAAGGAAUAAAUUGUUGGUUGG [#08 K4 FMN A Same State]”, “ACACUUUACGUAGGAUAUGCGACGAGUGAUGUUCGUCAGGCGGCCUUAGAUUAAACAAGCCGCCUAGCAGAAGGACGGGCAGUGU [Qumatiri]” is 2.4-fold higher in “apparent KD of K4 kissing-loop reporter” value: 64 nM for the first, 155 nM for the second.

“UGGAGUUGACGAAAAGUCAACUCCCGAGAAGGAGCGGACGAAAGUCCAGGUAGGUCGCUCACUACCAGUGAUGUUGGUACUAAAA” and “UAUACUAGACAAGAGAGAAUUCUCUCAAGAGAGGAUAUCCGAAUUCGGAGAAGGCUCUCUCAGUGAUGUUGGGAAUAGUCUAGAA [AK6 SS FMN A]” are within 1.5-fold of each other in “apparent KD of K4 kissing-loop reporter” value: 196 nM for the first, 151 nM for the second.

Compared with “GUAGGAUGGUGCGAUACCAGACCUGCAGUGAUGUUGCGCCAUAGUGAGUGAUGUUCACCGGUCCCUUGGCAGCGCGUCCAUAAAG [Same State Theophylline B GF 17]”, “GGCAUGCAUGGAAACAUGCAUGCCAUGCCUCGAGGACCGGUACGGCCGCCACUCGUUAAAAGAAAUGCCAGUGAUGUUGGCCGAA” is 1.7-fold lower in “apparent KD of K4 kissing-loop reporter” value: 719 nM for the first, 430 nM for the second.

“UUUAAACAUAGUGAUGUUAUGUAACAAUGACGAGGACCGGUACGGCCGCCACUCGAGAGAGAUGAUGGUAAAAUAAAUAAUUUUC [#10 K4 Tryptophan A Same State]” and “GGUCCGGGCUCGGCCGCCACUCCCUCCUGCCGGAAGGUGGGAUACCGAGUGAUGUUCGGUUGGAGGAGGACCGGGAGCCCGGACC [#2 Exclusion - Tryptophan B Attempt #13 (HarryS)]” are within 1.5-fold of each other in “apparent KD of K4 kissing-loop reporter” value: 124 nM for the first, 106 nM for the second.

“CCGUAGCGAUCGGCCGCCACUCAAGAUCGCCAACUAUCACACGGUUCUCCCGAGUGAUGUUCUAGGAGGACCGGGAUUGUUGCUC [theeternabot_exclusion_KL_Trp_B_13]” and “CAUACGCAUGGAGGAUAUGGGAUUACUCAUAUUACCCUGUAACAGGUAUCUCAGUGAUGUUGAGACUCAGAAGGCCAUGUGUAUG [Ex FMN B 23]” are within 1.5-fold of each other in “apparent KD of K4 kissing-loop reporter” value: 322 nM for the first, 289 nM for the second.

First: UUAGGAGUGGGAGGAUAUCCUAAUGUGGGUGAUGUUAGUGAUGUUGAAAGUGUAGUGAUGUUGUGCGGAGAAGGUCCAGUGUUGA [BDazzled - #11 - Exc. FMN B]
Second: AAACAUUGGUCGGAUACCAGCUUGAUCGGAAAACGAUCUGCUGGAGUGAUGUUCCAAUAAAGCCCUUGGCAGCCGACCGAUGAAA [MAT - Same State Theophlline B - Mod of Eli - D14]
The “apparent KD of K4 kissing-loop reporter” value of the first is 5.1-fold lower: 133 nM for the first, 679 nM for the second.

Going from “UGUAUGUGAUUUGAUACCAGACCAGCUGGAGGAAUCUGAGUGAUGUUCAGGUAGGUUUGGGUCCCUUGGCAGCAAAUCGCAUACU [KL-SSTheoB17]” to “CCAUUCUUUUACGAUACCAGUUUAAUAUAUUUAUUCAUAACCCUUGCCGAGUGAUGUUCGGACCCUUGGCAGCGUUUGCGAGAGG [lliltkmullin]”, the “apparent KD of K4 kissing-loop reporter” value rises from 196 nM to 308 nM (1.6-fold).

Same assay, conditions: Eterna round: R107; input ligand: none

Compared with “GUCUCAAAAGAGGCAAGCACUCACGAGGACAAGGAUAUCAUAUCAAUGAGAAGGUGUCCUCGUCCUUAGUGAUGUUAAGGAGUGC [Omei KL FMN A SS E v3]”, “GGUUUAUAGGAGGAUACCAGUACGGAUAAAGUACGUUAAUAGUAGAGUGAUGUUCUAAAGUACCCUUGGCAGCUUAGAGUAAGUU [ExTheophylB.K]” is 3.4-fold lower in “apparent KD of K4 kissing-loop reporter” value: 357 nM for the first, 105 nM for the second.

“UGUAUAUGAUGUGAUACCAGUGAAGAGCCAGUGAUGUUGGUAGAACUGGUAUAUAAAUAACACCCUUGGCAGCACAAUCACGUAC [whbob_Ex_Theo_B_sa98]” and “CGUUUAUAGCAGGAUACCAGUACCCAUAAAGUACGUUAAUAGUAGAGUGAUGUUCUGAAGUACCCUUGGCAGCUUCCGGUAAGUG [#25 K4 Theophylline B Exclusion]” are within 1.5-fold of each other in “apparent KD of K4 kissing-loop reporter” value: 202 nM for the first, 239 nM for the second.

Compared with “AUGCGCGUGCGAUGUAAAUCGCACGCGCAUCGAGGACCGGUACGGCCGCCACUCGCUCGCGCCGAGUGAUGUUCGGCCGGCGAAC [#2 Same State - Tryptophan A Attempt #5 (HarryS)]”, “UAUUAAUUGUCAGGAUAUCGUAUUCGAGUGAUGUUCGUAUAUCGACGAUAGUCGAUAUUAUUUAUACGAGAAGGGACAUUAUUUA [JR_SSFMNB_Sub005]” is 1.6-fold lower in “apparent KD of K4 kissing-loop reporter” value: 527 nM for the first, 330 nM for the second.

Going from “UUAUUAAUAACAGAUACCAGUCCAGAAUGAAAACUAUAGUGAUGUUAUAAUAAAGGGAAGGACCCUUGGCAGCUGUAAUAUAUUU [AstrosSSTheB#2]” to “UGUCAUUGGUCGGCCGCCACUUCAAGGUCAAAGACCAAAGAGUGAUGUUCUUAGACGAAAGUCAGAAGGACCGGGACCGAUGACU [TrypBS 9 #SwitchBubble #K4Middle]”, the “apparent KD of K4 kissing-loop reporter” value falls from 497 nM to 204 nM (2.4-fold).

First: GAGGUACAGGCGGCCGCCACUAGUGAUGUUAGUGAUAGAAGAUAUAGUAAAUAUCGGCAUGUAGAUAGGACCGGGCCUGGUGGAG [vvgtcmullin]
Second: CCUAUCUCAUACGAUACCAGUCUACGAUAUUUUAUCGUUGCCAACACCGAGUGAUGUUCGGACCCUUGGCAGCGUAUGGGAUAGG [#03 K4 Theophylline B Exclusion]
The “apparent KD of K4 kissing-loop reporter” value of the first is 2-fold higher: 288 nM for the first, 143 nM for the second.

Compared with “UAAGCUCUGACGGCCGCCACUGCACGUGAUCCAGUAGUGGCUAACAUGAGUGAUGUUCAUGUAAGCAGGACCGGGUCAGAGCUAA [KL-XTryp-B13 #analogue]”, “GUCUCAAAAGAGGCAAGCACUCACGAGGACAAGGAUAUCAUCUCAAUGAGAAGGUGUCCUCGUCCCUAGUGAUGUUAGGGAGUGC [Omei KL FMN A SS E v2]” is 3.9-fold higher in “apparent KD of K4 kissing-loop reporter” value: 94.7 nM for the first, 368 nM for the second.

First: GCGGGCCCGGGAGGAUAUGAGUCGAGUGAUGUUCGGCGGUCCAUGCCGUUGCGGCGUUAAGCCCUUUUAGAAGGCCCGGGCCCGC [#2 Exclusion - FMN B Attempt #2 (HarryS)]
Second: UCCACGCUUAGAGGAUAUCGGAUUAGAGUGAUGUUCUAAAGAAGCCCAGUGAUGUUGGAUGGUAUACGAGAAGGCUGAGGCGUGG [Same State FMN B GF 3]
The “apparent KD of K4 kissing-loop reporter” value of the first is 4.5-fold lower: 161 nM for the first, 725 nM for the second.

Going from “UCAUCGGUACAAGGAUAUUAGAGGUAGUGAUGUUACCCGUUUUUUAUACAUCGAUGUCACCCUAACUAAGAAGGUGUUCAAACUU [theeternabot_exclusion_KL_FMN_B_7]” to “UGACGUUUGGGAAGGAGCGGAAUGUAAUACGGAGCGCGUGGAGAUGCAGUGAUGUUGCAGAUCCAGGUAGGUCGCCCAAGGGACG [Zati]”, the “apparent KD of K4 kissing-loop reporter” value rises from 50.2 nM to 80.9 nM (1.6-fold).

From the supplement of paper PMC9170038
